The values below are quoted from earlier work in paper PMC6691274 (Molecular Medicine Reports, 2019).

Read-outs that look alike come from different tables or passages of the source.

Data set [1] concerns dipeptidyl-peptidase-IV (DPP-IV).
Another data set addresses T1, GLP-1R (Rattus norvegicus, UniProt P32301).
T1 sequence (P32301 22-463): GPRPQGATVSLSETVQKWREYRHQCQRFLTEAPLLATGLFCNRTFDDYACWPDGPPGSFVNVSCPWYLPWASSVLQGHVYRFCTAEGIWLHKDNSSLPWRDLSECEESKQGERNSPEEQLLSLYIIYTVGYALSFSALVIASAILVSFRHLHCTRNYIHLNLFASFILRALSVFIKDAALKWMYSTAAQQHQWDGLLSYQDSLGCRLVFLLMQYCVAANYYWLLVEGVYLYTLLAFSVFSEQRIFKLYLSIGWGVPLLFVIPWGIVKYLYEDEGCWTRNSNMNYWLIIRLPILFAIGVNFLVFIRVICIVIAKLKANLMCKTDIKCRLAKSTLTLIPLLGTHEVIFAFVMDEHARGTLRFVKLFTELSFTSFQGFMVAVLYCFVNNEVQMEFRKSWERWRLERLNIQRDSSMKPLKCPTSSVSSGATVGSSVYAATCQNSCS
To be noted: INS-1 rat insulinoma xenograft model and rat MI/R model.

For the substance “Exendin-4: an analog of GLP-1 with 53% amino acid homology, resistant to DPP-IV”, in data set [1], the “Stability towards DPP-IV” value is given as “resistant”.

Consider “^18F-4-fluorobenzamido-N-ethylamino-maleimide (FBEM)-Cys^40-exendin-4 [^18F-FBEM-Cys^40-exendin-4]”, for which the “Affinity with GLP-1R” value on GLP-1R is “high affinity”.

Take “GLP-1: 30-amino-acid-long gut hormone secreted from intestinal endocrine L-cells”: the “Stability towards DPP-IV” value in data set [1] (upon being released into the blood) is recorded as “rapidly degraded”.
